In publication PMC4822050, “Hemi-methylated DNA opens a closed conformation of UHRF1 to facilitate its histone recognition” (Nature Communications, 2016):
Where a chain is given by its changes, count along the chain named. In names and notes the source's numbering stands. Read-outs that look alike come from different tables or passages of the source.

Key:
Type in all cases: binding
H3K9me3 peptide (1–17) = test: ITC, H3K9me3 peptide (1-17) titrated into UHRF1 proteins
Description: (§1) For competition ITC experiments: the indicated proteins were pre-incubated with competitive peptide, protein or hm-DNA (at 1:2 molar ratio if not specified) for 10 min followed by ITC measurements as described above. Proteins, DNA and peptides were prepared within ITC buffer containing 10 mM HEPES, pH 8.0, 100 mM NaCl. The data were fitted by software Origin 7.0. All ITC results were summarized in Supplementary Table 2 and raw data were shown in Supplementary Fig. 9.

[1] = target: T1, Spacer (residues 587–674) of UHRF1 (Homo sapiens, UniProt Q96T88); test: ITC, interaction of UHRF1 domains with the Spacer
T1 construct: Spacer (residues 587–674); GST (N, cleaved yes); made in house; host or cells: E. coli BL21 (DE3)
T1 sequence (Q96T88 587-674): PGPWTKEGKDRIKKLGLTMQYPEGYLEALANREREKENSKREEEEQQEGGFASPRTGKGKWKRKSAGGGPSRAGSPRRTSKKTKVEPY
Description: as §1

[2] = target: T2, TTD (residues 134–285) of UHRF1 (Homo sapiens, UniProt Q96T88); test: ITC, TTD titrated into Spacer variants and other UHRF1 fragments; conditions: TTD in syringe
T2 construct: TTD (residues 134–285); GST (N, cleaved yes); made in house; host or cells: E. coli BL21 (DE3)
T2 sequence (Q96T88 134-285): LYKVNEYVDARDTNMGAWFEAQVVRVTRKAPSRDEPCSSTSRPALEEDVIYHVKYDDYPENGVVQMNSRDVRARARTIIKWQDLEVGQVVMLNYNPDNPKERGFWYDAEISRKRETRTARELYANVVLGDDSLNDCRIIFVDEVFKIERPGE
Description: as §1

hm-DNA (12 bp) = test: ITC, hm-DNA titrated into UHRF1 domains; conditions: 18 °C, 12-bp hm-DNA in syringe, named protein in cell, 10 mM HEPES pH 8.0, 100 mM NaCl
Description: as §1

FAM-12bp-HM-DNA = test: Fluorescence polarization, 12-bp FAM-hm-DNA; conditions: FP, 25 °C, 20 min; 20 mM HEPES pH 7.5, 175 mM NaCl, 8% glycerol, 1 mM DTT; triplicate; Fig. 5b and Supplementary Table 4
Description: A 6-carboxy-fluorescein (FAM)-labelled primer, 5′-CCATGCGCTGAC-3′, was annealed to a primer 5′-GTCAGXGCATGG-3′ (X=5-methyldeoxycytosine). The hemi-methylated double-strand DNA was used in both electrophoretic mobility-shift assay and FP assays. […] The samples were subjected to a 10% polyacrylamide gel electrophoresis and run in 0.5 × Tris-borate-EDTA buffer at 100 V for 1 h at 4 °C. The results were visualized on Tanon-5200 Chemiluminescent Imaging System (Tanon Science & Technology Co., Ltd).
FP measurements were performed at 25 °C on Synergy 4 Microplate Reader (BioTek). The 16-bp and 20-bp FAM-labelled hm-DNA (lower strand: 5′-GTGTCAGXGCATGGCC-3′ and 5′-CCGTGTCAGXGCATGGCCAT-3′, respectively. X=5-methyldeoxycytosine) were used in the FP experiment to test the effect of DNA length on the protein/DNA interaction. All experiments were performed in triplicate. The curves were fitted by GraphPad Prism 5. For salt concentration-dependent FP experiments, the reaction buffer contains 50 mM or 150 mM NaCl, respectively.

[3] = ITC, 18 °C, named protein 0.05 mM in cell, H3K9me3 (1-17) 0.5 mM in syringe, 10 mM HEPES pH 8.0, 100 mM NaCl, read-out: KD

B1: TTD–PHD: human UHRF1 residues 134–366 (protein)
chain: LYKVNEYVDARDTNMGAWFEAQVVRVTRKAPSRDEPCSSTSRPALEEDVIYHVKYDDYPENGVVQMNSRDVRARARTIIKWQDLEVGQVVMLNYNPDNPKERGFWYDAEISRKRETRTARELYANVVLGDDSLNDCRIIFVDEVFKIERPGEGSPMVDNPMRRKSGPSCKHCKDDVNRLCRVCACHLCGGRQDPDKQLMCDECDMAFHIYCLDPPLSSVPSEDEWYCPECRND
modifications: left off: GST, end not stated, cleaved
H3K9me3 peptide (1–17); ITC KD ratio
  fold higher binding affinity to H3K9me3 peptide than full-length UHRF1: ~31 fold
H3K9me3 peptide (1–17); [3]
  Kd: 150 nM
[1]; ITC stoichiometry, Spacer in syringe
  N: 0.887±0.0379
[1]; ITC, 18 °C, Spacer in syringe, named protein in cell, 10 mM HEPES pH 8.0, 100 mM NaCl
  Kd: 10700 nM
[1]; ITC, Spacer in syringe
  ΔH: -6.561 ± 0.4116 kcal/mol
  ΔS: 0.285 cal/mol/deg
[1]; ITC, molar ratio of TTD-PHD or TTD: H3K9me3=1:2
  interaction between the Spacer and the named protein in the presence of H3K9me3: No detectable interaction

B2: Spacer: C-terminal spacer region of human UHRF1 (residues 587–674) (protein)
chain: T1 sequence (Q96T88 587-674)
modifications: left off: GST, end not stated, cleaved
[2]; ITC stoichiometry
  N: 0.95±0.00786
[2]; ITC
  ΔH: -1.13 E4±116.7 cal/mol
  ΔS: -12.3 cal/mol/deg
H3K9me3 peptide (1–17); competition ITC, molar ratio TTD–PHD/Spacer=1:2, read-out: KD of H3K9me3 for TTD–PHD in the presence of the Spacer
  Kd: 1630 ± 80 nM
hm-DNA (12 bp)
  KD: no interaction

B3: SRA-Spacer-661: UHRF1 residues 414–661 (protein, UniProt Q96T88 414-661, looked up, fragment)
chain: PSNHYGPIPGIPVGTMWRFRVQVSESGVHRPHVAGIHGRSNDGAYSLVLAGGYEDDVDHGNFFTYTGSGGRDLSGNKRTAEQSCDQKLTNTNRALALNCFAPINDQEGAEAKDWRSGKPVRVVRNVKGGKNSKYAPAEGNRYDGIYKVVKYWPEKGKSGFLVWRYLLRRDDDEPGPWTKEGKDRIKKLGLTMQYPEGYLEALANREREKENSKREEEEQQEGGFASPRTGKGKWKRKSAGGGPSRAGS
FAM-12bp-HM-DNA
  Kd: 380 ± 60 nM

B4: UHRF1D334A: UHRF1 mutant D334A, which abolishes H3R2-binding affinity of the PHD (protein)
chain: MWIQVRTMDGRQTHTVDSLSRLTKVEELRRKIQELFHVEPGLQRLFYRGKQMEDGHTLFDYEVRLNDTIQLLVRQSLVLPHSTKERDSELSDTDSGCCLGQSESDKSSTHGEAAAETDSRPADEDMWDETELGLYKVNEYVDARDTNMGAWFEAQVVRVTRKAPSRDEPCSSTSRPALEEDVIYHVKYDDYPENGVVQMNSRDVRARARTIIKWQDLEVGQVVMLNYNPDNPKERGFWYDAEISRKRETRTARELYANVVLGDDSLNDCRIIFVDEVFKIERPGEGSPMVDNPMRRKSGPSCKHCKDDVNRLCRVCACHLCGGRQDPDKQLMCAECDMAFHIYCLDPPLSSVPSEDEWYCPECRNDASEVVLAGERLRESKKKAKMASATSSSQRDWGKGMACVGRTKECTIVPSNHYGPIPGIPVGTMWRFRVQVSESGVHRPHVAGIHGRSNDGAYSLVLAGGYEDDVDHGNFFTYTGSGGRDLSGNKRTAEQSCDQKLTNTNRALALNCFAPINDQEGAEAKDWRSGKPVRVVRNVKGGKNSKYAPAEGNRYDGIYKVVKYWPEKGKSGFLVWRYLLRRDDDEPGPWTKEGKDRIKKLGLTMQYPEGYLEALANREREKENSKREEEEQQEGGFASPRTGKGKWKRKSAGGGPSRAGSPRRTSKKTKVEPYSLTAQQSSLIREDKSNAKLWNEVLASLKDRPASGSPFQLFLSKVEETFQCICCQELVFRPITTVCQHNVCKDCLDRSFRAQVFSCPACRYDLGRSYAMQVNQPLQTVLNQLFPGYGNGR
modifications: left off: GST, end not stated, cleaved
H3K9me3 peptide (1–17); ITC, 18 °C, named protein 0.05 mM in cell, H3K9me3 (1-17) 0.5 mM in syringe, 10 mM HEPES pH 8.0, 100 mM NaCl
  KD: undetectable

B5: UHRF1D334A&∆627-674: UHRF1 with mutation D334A and deletion of residues 627–674 (protein)
chain: MWIQVRTMDGRQTHTVDSLSRLTKVEELRRKIQELFHVEPGLQRLFYRGKQMEDGHTLFDYEVRLNDTIQLLVRQSLVLPHSTKERDSELSDTDSGCCLGQSESDKSSTHGEAAAETDSRPADEDMWDETELGLYKVNEYVDARDTNMGAWFEAQVVRVTRKAPSRDEPCSSTSRPALEEDVIYHVKYDDYPENGVVQMNSRDVRARARTIIKWQDLEVGQVVMLNYNPDNPKERGFWYDAEISRKRETRTARELYANVVLGDDSLNDCRIIFVDEVFKIERPGEGSPMVDNPMRRKSGPSCKHCKDDVNRLCRVCACHLCGGRQDPDKQLMCAECDMAFHIYCLDPPLSSVPSEDEWYCPECRNDASEVVLAGERLRESKKKAKMASATSSSQRDWGKGMACVGRTKECTIVPSNHYGPIPGIPVGTMWRFRVQVSESGVHRPHVAGIHGRSNDGAYSLVLAGGYEDDVDHGNFFTYTGSGGRDLSGNKRTAEQSCDQKLTNTNRALALNCFAPINDQEGAEAKDWRSGKPVRVVRNVKGGKNSKYAPAEGNRYDGIYKVVKYWPEKGKSGFLVWRYLLRRDDDEPGPWTKEGKDRIKKLGLTMQYPEGYLEALANREREKENSKSLTAQQSSLIREDKSNAKLWNEVLASLKDRPASGSPFQLFLSKVEETFQCICCQELVFRPITTVCQHNVCKDCLDRSFRAQVFSCPACRYDLGRSYAMQVNQPLQTVLNQLFPGYGNGR
modifications: left off: GST, end not stated, cleaved
H3K9me3 peptide (1–17); [3]
  Kd: 8690 nM

B6: R295D/R296D mutant of full-length UHRF1: full-length UHRF1 with Linker mutation R295D/R296D (protein)
chain: B4 chain with R295D, R296D, A334D
modifications: left off: GST, end not stated, cleaved
H3K9me3 peptide (1–17); ITC, Supplementary Fig. 4g
  fold lower binding affinity to H3K9me3 than wild type UHRF1: eight
